Source: PMC4973555, “Engineering Saccharomyces cerevisiae with the deletion of endogenous glucosidases for the production of flavonoid glucosides” (Microbial Cell Factories, 2016)

B1: SbGT30 (Scutellaria baicalensis) (protein)
chain: MGQLHIVLVPMIAHGHMIPMLDMAKLFSSRGVRTTIIATPAFAEPIRKARESGHDIGLTTTKFPPKGSSLPDNILSLDQVTHDLLPHFFRALELLQEPVEEIMEDLKPNCLVSDMFLPWTTDSAAKFGIPRLLFHGTSLFARCFAEQMSLQKPYKNVSSDSEPFVLRGLPHEVSFVRTQIPGYELQEGGDDAFSKMAKQMRDADKKSYGDVINSFEELESEYVDHYKNVFGKKAWHIGPLSLCNNRAEQKSPIDDHECLAWLNSKKPNSVVYMCFGSMATFSPAQLHETAVGLESSGQDFIWVVRNGGENEDWLPQGFEERIKGKGLMIRGWAPQVVILDHPSTGAFVTHCGWNSTLEGICAGLPMVTWPVFAEQFYNEKLVTEVLKTGVSVGNKKWQRVGEWVGSEAVKEAVEWVMVGDGAAEMRSRANYYKEMARKAVEDGGSSYNNLNALIQELSAYVPPMKQGLN
notes: full-length cDNA in pTWIN1B; E. coli BL21 (DE3)
B2: SbGT34 (Scutellaria baicalensis) (protein)
chain: MGQLHIVLVPMIAHGHMIPMLDMAKLFSSRGVKTTIIATPAFAEPIRKARESGHDIGLTTTKFPPKGSSLPDNIWSLDQVTDDLLPHFFRALELLQEPVEEIMEDLKPNCLVSDMFLPWTTDSAAKFGIPRLLFHGTSLFARCFAEQMSLQKPYKNVSSDSEPFVLRGLPHEVSFVRTQIPGYELQEGGDDAFSKMAKQMRDADKKSYGDVINNFEELESEYVDHYKNVFGKKAWHIGPLSLCNNRAEQKSPIDDHECLAWLNSKKPNSVVYMCFGSMATFTPAQLHETAVGLESSGQDFIWVVRNGGENEDWLPQGFEERIKGKGLMIRGWAPQVMILDHPSTGAFVTHCGWNSTLEGICAGLPMVTWPVFAEQFYNEKLVTEVLKTGVSVGNKKWQRVGEGVGSEAVKEAVERVMVGDGAAEMRSRAIYYKEMARKAVEEGGSSYNNLNALIEELSAYVPPMKQGLN
notes: as for B1
B3: SbGT56 (Scutellaria baicalensis) (protein)
chain: MGQLHIVLVPMIAHGHMIPMLDMAKLFSSRGVKTTIIATPAFAEPIRKARESGHDIGLTTTKFPPKGSSLPDNIRSLDQVTGDLLPHFFRALELLQEPVEEIMEDLKPNCLVSDMFLPWTTDSAAKFGIPRLVFHGTSLFARCFSEQMSIQKPYKNVSSDSEPFVLRGLPHEVSFVRTQIPDYELQEGGDDAFSKMAKQMRDADKKSYGDVINSFEELESEYADYNKNVFGKKAWHIGPLKLFNNRAEQKSSQRGKESAIDDHECLAWLNSKKPNSVVYMCFGSMATFTPAQLHETAVGLESSGQDFIWVVRNGGKNEDWLPQGFEERIKGKGLMIRGWAPQVMILDHPSTGAFVTHCGWNSTLEGICAGLPMVTWPVFAEQFYNEKLVTEVLKTGVSVGNKKWQRVGEGVGSEAVKEAVERVMVGDGAAEMRSRAVYYKEMARKAVEEGGSSYNNLNALIQELSAYVPPMKQGLN
notes: as for B1

Each protein was assayed on O=c1cc(-c2ccc(O)cc2)oc2cc(O)c(O)c(O)c12 (assay: HPLC glucosyltransferase assay, Lineweaver-Burk plot). Settings: 2 mM UDP-glucose (saturating), 50 mM Tris-HCl pH 7.5, 30 °C.
Type: biochemical, Scutellaria baicalensis

First: B1
Second: B2
The Km of the first is 1.6-fold higher: 188 µM for the first, 121 µM for the second.

B3 was tested, and the Km was 222 µM.
